Source: publication PMC9931213, “Structural basis for ATG9A recruitment to the ULK1 complex in mitophagy initiation” (Science Advances, 2023)
Values belong to the binder of their own block, whether it stands above or below them.

B1: ATG13^HORMA (1–197):TwinStrep-Flag (TSF)–ATG101 complex (complex, human)
chain 1: METDLNSQDRKDLDKFIKFFALKTVQVIVQARLGEKICTRSSSSPTGSDWFNLAIKDIPEVTHEAKKALAGQLPAVGRSMCVEISLKTSEGDSMELEIWCLEMNEKCDKEIKVSYTVYNRLSLLLKSLLAITRVTPAYRLSRKQGHEYVILYRIYFGEVQLSGLGEGFQTVRVGTVGTPVGTITLSCAYRINLAFMS
chain 2: MNCRSEVLEVSVEGRQVEEAMLAVLHTVLLHRSTGKFHYKKEGTYSIGTVGTQDVDCDFIDFTYVRVSSEELDRALRKVVGEFKDALRNSGGDGLGQMSLEFYQKKKSRWPFSDECIPWEVWTVKVHVVALATEQERQICREKVGEKLCEKIINIVEVMNRHEYLPKMPTQSEVDNVFDTGLRDVQPYLYKISFQITDALGTSVTTTMRRLIKDTLAL
notes: ATG101, human; Heterodimer of two HORMA domains formed beforehand by co-expression; also called ATG13^HORMA:ATG101; source: HEK GnTi- cells, transfected, purified (Strep-Tactin resin, Superdex 200); not shown: TwinStrep-Flag (TSF), N-terminal, kept
B2: ATG13^HORMA (1–197), no tag (domain or fragment, human, UniProt O75143 1-197, looked up)
chain: METDLNSQDRKDLDKFIKFFALKTVQVIVQARLGEKICTRSSSSPTGSDWFNLAIKDIPEVTHEAKKALAGQLPAVGRSMCVEISLKTSEGDSMELEIWCLEMNEKCDKEIKVSYTVYNRLSLLLKSLLAITRVTPAYRLSRKQGHEYVILYRIYFGEVQLSGLGEGFQTVRVGTVGTPVGTITLSCAYRINLAFMS

Legend:
Conditions in all cases: both partners purified
[1] = target: T1, MBP-ATG9A (full-length autophagy-related protein 9A) (human, UniProt Q7Z3C6 1-839); test: pull-down; recombinant MBP-ATG9A constructs (1.2 μM) on amylose resin with TSF-ATG101:ATG13 (1–197) complex (3 μM), 4°C overnight, ITC buffer (25 mM Hepes pH 7.5, 150 mM NaCl, 1 mM MgCl2, 1 mM TCEP); full-length MBP-ATG9A in DDM/CHS micelles (0.05% DDM/CHS); SDS-PAGE
T1 construct: In detergent (DDM/CHS) micelles; also called wild-type MBP-ATG9A; ATG9A wild type (WT); source: HEK GnTi- cells, transfected; not shown: MBP, N-terminal, kept
T1 sequence (looked up): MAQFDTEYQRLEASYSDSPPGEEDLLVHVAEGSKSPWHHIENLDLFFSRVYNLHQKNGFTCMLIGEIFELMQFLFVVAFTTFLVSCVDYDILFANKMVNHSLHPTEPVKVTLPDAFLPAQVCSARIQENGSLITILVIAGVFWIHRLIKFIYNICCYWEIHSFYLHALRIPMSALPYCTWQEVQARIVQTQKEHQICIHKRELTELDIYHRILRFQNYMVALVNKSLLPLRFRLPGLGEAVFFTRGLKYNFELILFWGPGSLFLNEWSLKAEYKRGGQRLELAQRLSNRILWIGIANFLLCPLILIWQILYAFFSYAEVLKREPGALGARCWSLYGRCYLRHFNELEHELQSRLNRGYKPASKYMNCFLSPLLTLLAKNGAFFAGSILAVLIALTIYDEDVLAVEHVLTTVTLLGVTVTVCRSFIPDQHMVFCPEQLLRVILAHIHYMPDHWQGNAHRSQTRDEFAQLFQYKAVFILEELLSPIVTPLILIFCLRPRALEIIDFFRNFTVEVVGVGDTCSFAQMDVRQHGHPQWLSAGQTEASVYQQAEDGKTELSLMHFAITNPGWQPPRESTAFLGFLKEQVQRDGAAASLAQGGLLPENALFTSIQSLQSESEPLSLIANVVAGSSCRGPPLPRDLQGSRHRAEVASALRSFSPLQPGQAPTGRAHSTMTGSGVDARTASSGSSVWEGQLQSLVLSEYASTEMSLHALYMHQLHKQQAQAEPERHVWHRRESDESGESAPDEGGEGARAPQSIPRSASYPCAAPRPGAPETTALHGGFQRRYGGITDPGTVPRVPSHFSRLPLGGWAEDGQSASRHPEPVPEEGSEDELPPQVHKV

[2] = target: T2, ATG101 (1–198) as in the crystallised fusion (human, UniProt Q9BSB4 1-198); test: crystal structure; ATG9 HDIR (828–839)–fused ATG101 (1–198):ATG13 (1–197) complex, 6 mg/ml; sitting drop, 288 K, 0.1 M Hepes pH 7.5, 0.2 M NaCl, 12% PEG8000; 2.4 Å
T2 construct: ATG101, human, residues 1-198; written on its own for the pairs that touch; also called ATG101 HORMA domain; source: HEK 293GnTi cells, as the C-terminal part of the fusion m32
T2 sequence (looked up): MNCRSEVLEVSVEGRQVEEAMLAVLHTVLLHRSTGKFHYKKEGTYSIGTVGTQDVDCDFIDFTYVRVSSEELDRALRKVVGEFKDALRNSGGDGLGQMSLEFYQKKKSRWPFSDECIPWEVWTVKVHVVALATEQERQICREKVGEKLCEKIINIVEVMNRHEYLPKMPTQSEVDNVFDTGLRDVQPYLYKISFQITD

[3] = target: B2; test: as above
[4] = target: B1; test: pull-down; recombinant MBP-ATG9A constructs (1.2 μM) on amylose resin with TSF-ATG101:ATG13 (1–197) complex (3 μM), 4°C overnight, ITC buffer (25 mM Hepes pH 7.5, 150 mM NaCl, 1 mM MgCl2, 1 mM TCEP); full-length MBP-ATG9A in DDM/CHS micelles (0.05% DDM/CHS); SDS-PAGE

binding result [3]: binds
B3: ATG9A HDIR (828–839)–GSDEA–ATG101 (1–198) fusion construct (other, human)
chain: SEDELPPQVHKVGSDEAMNCRSEVLEVSVEGRQVEEAMLAVLHTVLLHRSTGKFHYKKEGTYSIGTVGTQDVDCDFIDFTYVRVSSEELDRALRKVVGEFKDALRNSGGDGLGQMSLEFYQKKKSRWPFSDECIPWEVWTVKVHVVALATEQERQICREKVGEKLCEKIINIVEVMNRHEYLPKMPTQSEVDNVFDTGLRDVQPYLYKISFQITD
notes: flexible linker of five residues; ATG101, human, residues 1-198; also called ATG9A HDIR-ATG101 fusion construct; not shown: GST, N-terminal, cleaved

binding result [4]: binds
B4: MBP-ATG9A (692–839), monomeric (domain or fragment, human, UniProt Q7Z3C6 692-839, looked up)
chain: QLQSLVLSEYASTEMSLHALYMHQLHKQQAQAEPERHVWHRRESDESGESAPDEGGEGARAPQSIPRSASYPCAAPRPGAPETTALHGGFQRRYGGITDPGTVPRVPSHFSRLPLGGWAEDGQSASRHPEPVPEEGSEDELPPQVHKV
notes: source: HEK GnTi- cells, transfected, purified (amylose resin, Superose 6); not shown: MBP, N-terminal, kept

Further lines, the binder ahead of its results:

Binder: B1
binding result [1]: binds

Binder: B2
binding result [2]: binds
